Results as given in the nanobody polyreactivity screen of Harvey et al. (2022).

Assay: yeast display, Sf9 membrane polyspecificity reagent, FACS + sequencing; frameworks hold sequencing errors
Outline: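 Galactose induction of a Saccharomyces cerevisiae BJ5465 synthetic nanobody display library ran 36–48 hours. The cells were then stained for 1 hour at 4 °C with 10% biotinylated, detergent-solubilized Sf9 membrane reagent, pulled down on streptavidin microbeads and FACS-sorted into low and high (top ~1%) gates on expression and reagent-binding fluorescence. Labels for polyreactivity follow the gate of origin.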

Sequence: QVQLVESGGGLVQAGGSLRLSCAASGSTFTFNAMGWYRKAPGKERELVAAISGSDVTTYYADSVKGRFTISRDNAKNSVYLQMNSLKPEDTAVYYCAAESYVTTVTGPHTGDYWGQGTQVTVSS
- polyreactivity (PSR sort gate): low polyreactivity

Sequence: QVQLVESGGGLVQAGGSLRLSCAASGGIFGINAMGWYRQAPGKEREFVAAITASGGTTYYADSVKGRFTISRDNAKNTVYLQMNSLKPEDTAVYYCAKRYRSYDYVWYEYWGQGTQVTVSS
- polyreactivity (PSR sort gate): high polyreactivity

Sequence: QVQLQESGGGLVQAGGSLRLSCAASGTISPLPAMGWYRQAPGKEREFVAGIDTGAITNYADSVKGRFTISRDNAKNTVYLQMISLKPEDTAVYYCAVFPAAYYYYERFYTYWGQGTQVTVSS
- polyreactivity (PSR sort gate): low polyreactivity

Sequence: QVQLVESGGGLVQAGGSLRLSCAASGSTFNKYAMVWYRQAPGKERELVAAITGSGGRTYYADSVKGRFTISRDTAKNTVYLQMNSLKPEHTAVYYCNAGITHGYDYWGQGTQVSVSS
- polyreactivity (PSR sort gate): high polyreactivity

Sequence: QVQLVESGGGLVQAGGSLRLSCAASGFIFSWYAMGWSRQAPGKERELVAAIDQSGDSTYYADSVKGRFTISRDNAKNTVYLQMNSLKPEDTAVYYCAAQSYDYWYDYDYWGQGTQVTVSS
- polyreactivity (PSR sort gate): high polyreactivity

Sequence: QVQLVESGGGIVQAGGSLRLICAASGFTFGEYAMGRYRQAPGKERELVAAISRGTSTYYADSVKGRFTISRDNAKTTVYLQMNSLKPEDTAVYYCAADWGGLWFWYEYWGQGTQVTVSS
- polyreactivity (PSR sort gate): low polyreactivity

Sequence: QVQLVESGGGLVQAGGSLRLSCAASGRTFDGYAMGWYRQAPGKERELVASINGGGSTNYADSVKGRFTISRDNAKNTVYLQMNSLKPEDTAVYYCAAESKGTWHYLYTSPHYYWGQGTQVTVSS
- polyreactivity (PSR sort gate): low polyreactivity

Sequence: QVQLVESGGGLVQAGGSLRLSCAASGSIFEGYAMGWYRQAPGKERELVADITSGGSTYYADSVKGRFTISRDNAKNTVYLQMNSLKPEDNAVYYCNRDYHWIELVYPDDRREYDYWGQGTQVTVSS
- polyreactivity (PSR sort gate): low polyreactivity

Sequence: QVQLVESGGGLVQAGGSLRLSCAASGSIFKRYAMGWYRQAPGKERELVAAISYSGGSTYYADSVKGLFTISRDNAKNTVYLQMNSLKPEDTAVDYCARGWFYPYYWGQGTQVTVSS
- polyreactivity (PSR sort gate): high polyreactivity

Sequence: QVQLLESGAGLVQAGGSLRLSCAAYGSTSYDYAMGWYRQAPGKERELVAAISGSSSTTYYADSVKGRFTISRDNAKNTVYLQMNSLKPEDTAVYYCNAVTTSGYGYGYWGQGTQVTVSS
- polyreactivity (PSR sort gate): low polyreactivity

Sequence: QVQLVESGGGLVQAGGSLRLSCAASGSIFDAYAMGWYRQAPGKERELVAAISSGGNTNYADSVKGRFTISRDNAKNTVDLQMNSLKPEDTAVYYCAADFTHPDGLPGFDYWGQGTQVTVSS
- polyreactivity (PSR sort gate): low polyreactivity

Sequence: QVQLVESGGGLVQAGGSLRLSCAASGFTFKLYAMGWYRQAPGKERELVAAISSSGGRTYYADSVKGRFTISRDNAKNTVYLQMNSLKPEDTAVYYCNAVRTVNDYHYDYWGQGTQVTVSS
- polyreactivity (PSR sort gate): high polyreactivity

Sequence: QVQLVESGGGLVQAGGSLRLICAASGNIFSYNAMGWYRQAPGKERELVAAISRRGGSTFYADSVKGRFTISRDKAKNTVYLQMNSLKPEDTAVYYCAASRNRYSYGYWGQGTQVTVSS
- polyreactivity (PSR sort gate): high polyreactivity

Sequence: QVQLVESGGGLVQAGGSLRLSCAASGRTSGFNTMGWYRQAPGKERELVAAISFSGGSTYYADSVKGRFTISRDNAKNTVYLQMNSLKPEDTAVYYCNALYRYLYRSGDYWGLGTQVTVSS
- polyreactivity (PSR sort gate): low polyreactivity

Sequence: QVQLVESGGGLVQAGGSLRLSCAASGFTLGRYAKGWYRQAPGKERELVAAISSGGRTYYADSVKGRFTISRDNAKNTVYLQMNSLKPEDTAVYYCAADPRYISYDYWGQGTQVTVSS
- polyreactivity (PSR sort gate): low polyreactivity

Sequence: QVQLVESGAGLVQEGGSLRLSCAASGSIFVGNAMGWYRQAPGKERELVATISWSGGSTYYADSVKGRFTISRDNAKNTVYLQMNSLKPEDTAVYYCAKTPYRRYRYGGYTYRTYDYWGQGTQVTVSS
- polyreactivity (PSR sort gate): low polyreactivity

Sequence: AVQLEESRGGLVQAGGSLRLSCAASGFIFTVNAMGWSRQAPGKERELVAAITQSGGNTSYADSVKGRFTFSRDNAKNTFYLQMNSLKPEDTAVYYCAADDVDVEHPASWDDYDSWGQGTQVTVSS
- polyreactivity (PSR sort gate): low polyreactivity

Sequence: QVQLVESGGGLVQAGGSLRLSCAASGSTFPGNTMGSYRQAPGKERELVAAITWNGGSTYYADSVKGRFTISRDNAKNNVYLQMNRLKPEDTAVYYCATRARVTYYYWGLGTQVTVSS
- polyreactivity (PSR sort gate): high polyreactivity

Sequence: QVQLLESGGGLVQAGGSLRLSCAASGFTFYLYTMGWYRQATGKERELVAAISRSGDRTYYADSVKGRFTISRDNAKNNVYLQMNSLKPEDTAVYYCAARSYRPTRGDYWGQGTQVTVST
- polyreactivity (PSR sort gate): high polyreactivity

Sequence: QVQLVESGGGLVQAGGSLRLSCAASGRTFSRYAMGWYRQAPGKERELVATISSSGGTTYYADSVKGRFTISRDNAKNTVYLQLNSLKPEDTAVSYCNSEYKIRTHASGFDYWGQGTQVTVSS
- polyreactivity (PSR sort gate): low polyreactivity

Sequence: QVQLVESGGGLVQAGGSLRLSCAASGRTFSVNAMGWYRPAPGKERELVAAISWDGGSTYYADSVKGRFTISRDNAKNTVYLQMNSLKPEDTAVYYCNKDLYYAYDYWGQGTQVTVSS
- polyreactivity (PSR sort gate): low polyreactivity

Sequence: QVQLVESGGGIVQAGGSLRLSCAASGLTFWPYAMGWYRQARGKERELVAAISYNSGRTYYADSVKGRFTISRDNAKNTVYLQMNSLKPEDTEVYYCAVEWSLSRYYYWGQGTQVTVSS
- polyreactivity (PSR sort gate): high polyreactivity

Sequence: QVQLVESGGGLVQAGGSLRLSCAASGSTFRYYAMGWYRQAPGKERELVAVISTSGNTYYADSVKGRFSISRDNAKITVYVQMNSLQPEETAVYYCAARGVGGQISQEYDYWGQGTQVTVSS
- polyreactivity (PSR sort gate): low polyreactivity

Sequence: QVQRVESGGGLVQAGGSLRLSCAASGFIFARNAMGWNRPAPGKERELVAAINQSGGITRYADSVKGRFTISRDNAKNTVYLQMNSLKPEDTAVYYCATPLYVRYDYWGQGSQVTVSS
- polyreactivity (PSR sort gate): high polyreactivity

Sequence: QFQLVESGGGLVQAGGSLRLSCAASGSTFRRNTMGWYRQAPGKEREFVAAISRRGGSTYYADSVKGRFTISRDNAKNTVYLQMNRLKPEDTAVYYCAAPGLSRLYNVYYWPYDYWGQGTQVTVSS
- polyreactivity (PSR sort gate): high polyreactivity

Sequence: QVQLVESGGGLVQAGGSLRLSCAASGRTFTYYAMGWYRQAPGKERELVAAIRYTGGSTHYADSVKGRFTISRDNAKNTVYLQIHSLKPEDTAVYYCGARRAYTRGGTVYFGYYYWGQGTQVTVSS
- polyreactivity (PSR sort gate): high polyreactivity

Sequence: QVQLVESGGGLVQAVGSLRLSCAASGSTFREYTMGWYRQAPGKERELVAAITNSGGSTYYADSVKGRFTISRDNAKNTVYLQMNSLKPEDTAVYYCAAEGRYFYFTVKMDYWGQGTQVTVSS
- polyreactivity (PSR sort gate): low polyreactivity

Sequence: QVQLVESGGGLVKAGGSLRLSCAASGFISSSYAMGWYRQAPGKERELVAVITRSGGSTYYADSVKGRFTISRDNAKNTVYLQMNSLKPEDTGVYYCNTDARSKKYIFDFDYWGQGTQVTVSS
- polyreactivity (PSR sort gate): high polyreactivity

Sequence: QVQLVESGGGLDQAGGSLRLSCAASGITFQGYAMGWYRQAPGKERELVAAINDSGSSTYYADSVKGRFTISRDNAKNTVYLQMNSLKPEDTAVYYCAAYLWFWGQGTQVTVSS
- polyreactivity (PSR sort gate): low polyreactivity

Sequence: QVQLVESGGGLVQAGGSLRLSCAASGFIFQRNAMGWYRQAPGKERELVAAISWTGGSTYYADSVKGRFTISRDNAKNTVYLQMNSLKPDVTAVYYCAKYGSGPYGYWGQGTQVTVSS
- polyreactivity (PSR sort gate): high polyreactivity

Sequence: QVQLVESGGCLVPAGGSLRLSCAASGFIIDWYDMAWYRQAPGKERELVAAITRSAGRTYYADSVKGRFTISRDIAKITVYLQMNSLKPEDTAVYYCAARSSSAGGGDGYWGQGTQVTLSS
- polyreactivity (PSR sort gate): high polyreactivity

Sequence: QVQLVESGGGLVQAGGSLRLSCAASGRTFVGYAMGWYRQPPGKERELVAAISGSGVRTYYADSVKGRFTISRDNAKNTGYLQMNSLKPEDTAVYYCADRRYRRWYDYWGQGTQVTVSS
- polyreactivity (PSR sort gate): high polyreactivity

Sequence: QGQLVESGAGLVKAGGSLRISCAASGYTFPSNARAWYRHAPGTPRQLVAAISSGGRTNYADSLKGRFTISRDNAKNTVYLQMNRLKPEDTAVYNCNADGGPGYPSAYDYWVQGTQVTVSS
- polyreactivity (PSR sort gate): low polyreactivity

Sequence: QVQLVESGGGLDQAGGSLRLSCAASGLTFKWYAMGWYRQAPGKERELVAAIRTSAGSTYYADSVKGRFTISRDNAKNTVYLQMNSLKPEDTAVYYCNAVGYVFRYVYQYDYWGQCTQVTVSS
- polyreactivity (PSR sort gate): low polyreactivity

Sequence: QVQLVESGGGLVQAGGSLRLSCAASGITFSYYAMGWYRQAPGKERELVAVISRRGGTTYYADSVKGRFTISRDNAKNTVYLQMNSLKPEDTAVYYCAATYISVLGYEYWGQGTQVTVSS
- polyreactivity (PSR sort gate): high polyreactivity

Sequence: QVQLVESGRGLVQAGGSLRLSCAASGRIFSIYAMGWYRQAPGKERELVAAITRGGRTNYADSVKGRFTISRDNAKNTVYLQMNSLKPEDTAVYYCAARRIDGVVKPYDYWGQGTQVTVSS
- polyreactivity (PSR sort gate): low polyreactivity

Sequence: QVQLVESGGGLVQAGGSLRLSCAASGSTFGYNAMGWYRQSPGKERELVAAISYSGGSTYYADSVKGRFTISRDNAKNTVYLLMNSLKPEDTAVYYCAKETNRVGRYHWGQGTQVNVSS
- polyreactivity (PSR sort gate): low polyreactivity

Sequence: QVQLVETGGGLVQAGGSLRLSCAASGIIFDVYAMGWYRPAPGKERELVAAISYGGGTTYYADSVKGRFTISRDNAKNTVYLQMNSLKPEDTAVYYCAADSYRSIGDDYWGQGTQVTVSS
- polyreactivity (PSR sort gate): high polyreactivity

Sequence: QVQLVESGGGLVQAGGSLRLSCAASGSTRRYVMGWYRQAPWKERELVAAISYSGGSTYYADSVKGRFTISRDNAKNTVYLQMNSLKPEDTAVYYCAADGYSGQYGGHMGYWGQGTQVTVSS
- polyreactivity (PSR sort gate): high polyreactivity

Sequence: QVHLVESGGGLVQAGGSLRLSCAASGGTIAFNGMGWYRQAPGKDRELVAAITWRSGSTYYADSVKGRFTISRDNPKNPVYLQMNSLKPDDTAVYYCNAARAVYTQKRFDSWGQGTQVTVSS
- polyreactivity (PSR sort gate): high polyreactivity

Sequence: QVQLVESGGGLVQAGGSLRLSCAASGIIFRRYAMGWYRQAPGKERELVAAISSRGGSTYYADSVKRRFTISRDNAKNTVYLQMNSLKPEDTAVYYCAKGFSGTGGSGDFGYWGQGTQVTVSS
- polyreactivity (PSR sort gate): high polyreactivity

Sequence: QVQLVESGGGLVQAGGSLRLSCAASGSTFTFYAMGWYRQAPGKERELVAAISGRGGSTYYADSVKGRFTISRDNAMNTVYLQMNSLKPEDTAVYYCAAGWSRVWRRDFGYWGQGTQVTVSS
- polyreactivity (PSR sort gate): low polyreactivity

Sequence: QVQLVESGGGLVHAGGSLRLSCDASGITFGPYGMGWYRQAHGKEREFVATITTIGGITYYADSVKGRFTISRDNAKNTFYLQMNSLKPEDTAVYYCAAPWFHGYDALVDYWGQGTQVTVSS
- polyreactivity (PSR sort gate): low polyreactivity
